Test results as given in paper PMC4932919, “Structural and functional studies of the glycoside hydrolase family 3 β-glucosidase Cel3A from the moderately thermophilic fungus Rasamsonia emersonii” (Acta Crystallographica. Section D, Structural Biology, 2016).

Key:
HjCel3A = target: T1, HjCel3A (Trichoderma reesei, UniProt Q12715); experiment: differential scanning calorimetry; assay type: binding; conditions: 1000 µM; 1 mM glucose; 10 mM sodium acetate pH 5.0; Tm without glucose 77.6 °C; scan rate 200°C/h; irreversible unfolding
T1 construct: gene bgl1
T1 sequence (Q12715 20-744): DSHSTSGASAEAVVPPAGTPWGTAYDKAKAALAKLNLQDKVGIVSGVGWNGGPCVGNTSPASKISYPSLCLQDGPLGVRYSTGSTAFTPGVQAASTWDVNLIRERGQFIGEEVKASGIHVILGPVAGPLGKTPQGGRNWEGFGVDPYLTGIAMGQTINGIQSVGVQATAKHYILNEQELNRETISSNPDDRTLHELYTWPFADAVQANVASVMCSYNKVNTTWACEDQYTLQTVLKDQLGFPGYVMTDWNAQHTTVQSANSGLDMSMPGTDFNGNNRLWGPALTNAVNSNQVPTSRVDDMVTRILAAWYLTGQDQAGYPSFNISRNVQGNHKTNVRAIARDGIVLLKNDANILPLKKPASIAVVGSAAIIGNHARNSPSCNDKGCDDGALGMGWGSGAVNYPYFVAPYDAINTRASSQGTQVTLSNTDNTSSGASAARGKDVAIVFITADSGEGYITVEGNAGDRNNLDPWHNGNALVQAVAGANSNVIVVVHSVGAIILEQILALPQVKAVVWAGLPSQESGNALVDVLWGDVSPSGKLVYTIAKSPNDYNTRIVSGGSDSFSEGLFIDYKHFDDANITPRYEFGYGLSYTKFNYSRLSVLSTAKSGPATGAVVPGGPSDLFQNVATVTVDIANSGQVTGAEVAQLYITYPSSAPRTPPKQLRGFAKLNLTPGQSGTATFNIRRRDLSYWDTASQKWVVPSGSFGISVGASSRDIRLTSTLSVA
Text: differential scanning calorimetry on HjCel3A

[1] = target: β-glucosidase Cel3A from Rasamsonia emersonii (Rasamsonia emersonii); experiment: SEC; gel-filtration characterization of purified ReCel3A; conditions of this run not told
[2] = substrate: O=[N+]([O-])c1ccc(O[C@@H]2OC[C@@H](O)[C@H](O)[C@H]2O)c(Cl)c1; experiment: chromogenic substrate kinetics (method for CNPX not described); assay type: biochemical, Rasamsonia emersonii; conditions: conditions for CNPX not stated, other chromogenic substrates pH 5.0, 37°C
purified protein [3] = substrate: O=[N+]([O-])c1ccc(O[C@@H]2O[C@H](CO)[C@@H](O)[C@H](O)[C@H]2O)cc1; experiment: purified protein; conditions: 100 mM phosphate pH 5.0, 37°C
purified protein [4] = substrate: O=[N+]([O-])c1ccc(O[C@@H]2O[C@H](CO)[C@@H](O)[C@H](O)[C@H]2O)c(Cl)c1; experiment: purified protein; assay type: biochemical, Rasamsonia emersonii; conditions: 100 mM phosphate pH 5.0, 37°C

For OC[C@H]1OC(O)[C@H](O)[C@@H](O)[C@@H]1O (some centres unmarked) [glucose], the “T m (°C)” value (HjCel3A) was 79.0 °C.

“β-glucosidase Cel3A from Rasamsonia emersonii (enzyme)” showed a stoichiometry N [1] of 2.

B1: ReCel3A (Rasamsonia emersonii) (protein)
chain: NLAYSPPFYPSPWANGQGDWAEAYQKAVQFVSQLTLAEKVNLTTGTGWEQDRCVGQVGSIPRLGFPGLCMQDSPLGVRDTDYNSAFPAGVNVAATWDRNLAYRRGVAMGEEHRGKGVDVQLGPVAGPLGRSPDAGRNWEGFAPDPVLTGNMMASTIQGIQDAGVIACAKHFILYEQEHFRQGAQDGYDISDSISANADDKTMHELYLWPFADAVRAGVGSVMCSYNQVNNSYACSNSYTMNKLLKSELGFQGFVMTDWGGHHSGVGSALAGLDMSMPGDIAFDSGTSFWGTNLTVAVLNGSIPEWRVDDMAVRIMSAYYKVGRDRYSVPINFDSWTLDTYGPEHYAVGQGQTKINEHVDVRGNHAEIIHEIGAASAVLLKNKGGLPLTGTERFVGVFGKDAGSNPWGVNGCSDRGCDNGTLAMGWGSGTANFPYLVTPEQAIQREVLSRNGTFTGITDNGALAEMAAAASQADTCLVFANADSGEGYITVDGNEGDRKNLTLWQGADQVIHNVSANCNNTVVVLHTVGPVLIDDWYDHPNVTAILWAGLPGQESGNSLVDVLYGRVNPGKTPFTWGRARDDYGAPLIVKPNNGKGAPQQDFTEGIFIDYRRFDKYNITPIYEFGFGLSYTTFEFSQLNVQPINAPPYTPASGFTKAAQSFGQPSNASDNLYPSDIERVPLYIYPWLNSTDLKASANDPDYGLPTEKYVPPNATNGDPQPIDPAGGAPGGNPSLYEPVARVTTIITNTGKVTGDEVPQLYVSLGGPDDAPKVLRGFDRITLAPGQQYLWTTTLTRRDISNWDPVTQNWVVTNYTKTIYVGNSSRNLPLQAPLKPYPGI
notes: secreted mature protein, signal peptide 1-20 removed; codon-optimized gene expressed in Hypocrea jecorina RL-P37 derivative with four cellulases deleted; no tag; N-glycosylated; dimer in solution; visible residues Asp21-Pro855
B1 showed a Km [2] of 660 µM, a kcat [2] of 0.23 s⁻¹ and a kcat/Km [2] of 350 M⁻¹ s⁻¹. The Km (purified protein [3]) was 400 µM, the kcat (purified protein [3]) was 5.4 s⁻¹ and the kcat/Km (purified protein [3]) was 14000 M⁻¹ s⁻¹. The Km (purified protein [4]) was 400 µM, the kcat (purified protein [4]) was 14 s⁻¹ and the kcat/Km (purified protein [4]) was 36000 M⁻¹ s⁻¹.
